# Experimental data reported in the RNAGym collection of RNA variant scans (doi:10.1093/molbev/msab373).
# B1: Azoarcus group I ribozyme (parent)
# chain: GUGCCUUGCGCCGGGAAACCACGCAAGGGAUGGUGUCAAAUUCGGCGAAACCUAAGCGCCCGCCCGGGCGUAUGGCAACGCCGAGCCAAGCUUCGGCGCCUGCGCCGAUGAAGGUGUAGAGACUAGACGGCACCCACCUAAGGCAAACGCUAUGGUGAAGGCAUAGUCCAGGGAGUGGCGAAAGUCACACAAACCGG
# Variants of: B1
# Test: reverse-splicing fitness (ratio to wild type); higher = more active; in vitro selection; Mg2+ level not given
# Procedure, shortened: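 An in vitro group I ribozyme library with randomized positions was T7-transcribed and gel-purified. In triplicate, 10 pmol RNA in EPPS pH 7.5 was reacted with 50 pmoles of a 30-nt RNA substrate for 1 h at 37 °C across several added MgCl2 levels (1–48 mM), then stopped with EDTA. Products were reverse transcribed from a substrate-complementary primer, PCR-amplified and sequenced (HiSeq 4000). Fitness is a variant's read proportion after selection over that before, normalised to wild type.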
row,Variant,reverse-splicing fitness
1,GUGCCUUGCGCCGGGAAACCACGCAAGGGAUGGUGUCAAAUUCGGCGAAACCUAAGCGCCCGCCCGGGCGUAUGGCAACGCGGAGCCAAGCUUCGGCGCCUGCGCCGAUGCAGGUGUAGUGACUAGACGGCACCCACCUAAGGCAAACGGUAUGGUGAAGGCAUAGUCUAGGGAGCGGCGAAAGUCACACAAACCGG,0.00676
2,GUGCCUUGCGCCGGGAAACCACGCAAGGGAUGGUGUCAAAUUCGGCGAAACCUAAGCGCCCGCCCGGGCGUAUGGCAACGCGGAGCCAAGCUUCGGCGCCUGCGCCGAUGCAGGUGUAGUGACUAGACGGCACCCACCUAAGGCAAACGGUAUGGUGAAGGCAUAGUCUAGGGAGAGGCGAAAGUCACACAAACCGG,0.00494
3,GUGCCUUGCGCCGGGAAACCACGCAAGGGAUGGUGUCAAAUUCGGCGAAACCUAAGCGCCCGCCCGGGCGUAUGGCAACGCGGAGCCAAGCUUCGGCGCCUGCGCCGAUGCAGGUGUAGUGACUAGACGGCACCCACCUAAGGCAAACGGUAUGGUGAAGGCAUAGUCUAGGGAGGGGCGAAAGUCACACAAACCGG,0.00294
4,GUGCCUUGCGCCGGGAAACCACGCAAGGGAUGGUGUCAAAUUCGGCGAAACCUAAGCGCCCGCCCGGGCGUAUGGCAACGCGGAGCCAAGCUUCGGCGCCUGCGCCGAUGCAGGUGUAGUGACUAGACGGCACCCACCUAAGGCAAACGAUAUGGUGAAGGCAUAGUCUAGGGAGUGGCGAAAGUCACACAAACCGG,0.00505
5,GUGCCUUGCGCCGGGAAACCACGCAAGGGAUGGUGUCAAAUUCGGCGAAACCUAAGCGCCCGCCCGGGCGUAUGGCAACGCGGAGCCAAGCUUCGGCGCCUGCGCCGAUGCAGGUGUAGUGACUAGACGGCACCCACCUAAGGCAAACGAUAUGGUGAAGGCAUAGUCUAGGGAGGGGCGAAAGUCACACAAACCGG,0.00298
6,GUGCCUUGCGCCGGGAAACCACGCAAGGGAUGGUGUCAAAUUCGGCGAAACCUAAGCGCCCGCCCGGGCGUAUGGCAACGCGGAGCCAAGCUUCGGCGCCUGCGCCGAUGCAGGUGUAGUGACUAGACGGCACCCACCUAAGGCAAACGAUAUGGUGAAGGCAUAGUCUAGGGAGCGGCGAAAGUCACACAAACCGG,0.00469
7,GUGCCUUGCGCCGGGAAACCACGCAAGGGAUGGUGUCAAAUUCGGCGAAACCUAAGCGCCCGCCCGGGCGUAUGGCAACGCGGAGCCAAGCUUCGGCGCCUGCGCCGAUGCAGGUGUAGUGACUAGACGGCACCCACCUAAGGCAAACGAUAUGGUGAAGGCAUAGUCUAGGGAGAGGCGAAAGUCACACAAACCGG,0.00691
8,GUGCCUUGCGCCGGGAAACCACGCAAGGGAUGGUGUCAAAUUCGGCGAAACCUAAGCGCCCGCCCGGGCGUAUGGCAACGCGGAGCCAAGCUUCGGCGCCUGCGCCGAUGCAGGUGUAGUGACUAGACGGCACCCACCUAAGGCAAACGGUAUGGUGAAGGCAUAGUCUAGGGAGUGGCGAAAGUCACACAAACCGG,0.00609
9,GUGCCUUGCGCCGGGAAACCACGCAAGGGAUGGUGUCAAAUUCGGCGAAACCUAAGCGCCCGCCCGGGCGUAUGGCAACGCGGAGCCAAGCUUCGGCGCCUGCGCCGAUGCAGGUGUAGUGACUAGACGGCACCCACCUAAGGCAAACGGUAUGGUGAAGGCAUAGUCGAGGGAGUGGCGAAAGUCACACAAACCGG,0.00669
10,GUGCCUUGCGCCGGGAAACCACGCAAGGGAUGGUGUCAAAUUCGGCGAAACCUAAGCGCCCGCCCGGGCGUAUGGCAACGCGGAGCCAAGCUUCGGCGCCUGCGCCGAUGCAGGUGUAGUGACUAGACGGCACCCACCUAAGGCAAACGGUAUGGUGAAGGCAUAGUCAAGGGAGUGGCGAAAGUCACACAAACCGG,0.00763
11,GUGCCUUGCGCCGGGAAACCACGCAAGGGAUGGUGUCAAAUUCGGCGAAACCUAAGCGCCCGCCCGGGCGUAUGGCAACGCGGAGCCAAGCUUCGGCGCCUGCGCCGAUGCAGGUGUAGUGACUAGACGGCACCCACCUAAGGCAAACGGUAUGGUGAAGGCAUAGUCGAGGGAGCGGCGAAAGUCACACAAACCGG,0.00379
12,GUGCCUUGCGCCGGGAAACCACGCAAGGGAUGGUGUCAAAUUCGGCGAAACCUAAGCGCCCGCCCGGGCGUAUGGCAACGCGGAGCCAAGCUUCGGCGCCUGCGCCGAUGCAGGUGUAGUGACUAGACGGCACCCACCUAAGGCAAACGGUAUGGUGAAGGCAUAGUCGAGGGAGGGGCGAAAGUCACACAAACCGG,0.00302
13,GUGCCUUGCGCCGGGAAACCACGCAAGGGAUGGUGUCAAAUUCGGCGAAACCUAAGCGCCCGCCCGGGCGUAUGGCAACGCGGAGCCAAGCUUCGGCGCCUGCGCCGAUGCAGGUGUAGUGACUAGACGGCACCCACCUAAGGCAAACGGUAUGGUGAAGGCAUAGUCGAGGGAGAGGCGAAAGUCACACAAACCGG,0.0049
14,GUGCCUUGCGCCGGGAAACCACGCAAGGGAUGGUGUCAAAUUCGGCGAAACCUAAGCGCCCGCCCGGGCGUAUGGCAACGCGGAGCCAAGCUUCGGCGCCUGCGCCGAUGCAGGUGUAGUGACUAGACGGCACCCACCUAAGGCAAACGUUAUGGUGAAGGCAUAGUCCAGGGAGUGGCGAAAGUCACACAAACCGG,0.0243
15,GUGCCUUGCGCCGGGAAACCACGCAAGGGAUGGUGUCAAAUUCGGCGAAACCUAAGCGCCCGCCCGGGCGUAUGGCAACGCGGAGCCAAGCUUCGGCGCCUGCGCCGAUGCAGGUGUAGUGACUAGACGGCACCCACCUAAGGCAAACGGUAUGGUGAAGGCAUAGUCCAGGGAGUGGCGAAAGUCACACAAACCGG,0.00766
